Measurements: patent US20190233823 (AEROVIRUS TECHNOLOGIES INC., published 2019)

B1: APT3Cooc10 (ssDNA)
DNA: GCCTGTTGTGAGCCTCCTAACGGGTATGACTACAGATGCAGGGCGGCCTGTAGCCTTGCATTGACAAGGGCATGCTTATTCTTGTCTCCC
B2: APT3Histo1 (ssDNA)
DNA: GCCTGTTGTGAGCCTCCTAACCGCACGTGGGTATTCTAAGTGCGGTAGCTCAATGGTGAGCGATGAGCATCATGCTTATTCTTGTCTCCC
B3: APT3Cooc3 (ssDNA)
DNA: GCCTGTTGTGAGCCTCCTAACTAGCTCGTAGAAAAAAAATATAGCGTGTGCTGGGACTGCTCGGGATTGCGGACACATGCTTATTCTTGTCTCCC

What follows are binders tested against P97 cilium adhesin ectodomain fragment (P97 peptidic complex, SELEX target section 768-925) (Mycoplasma hyopneumoniae) (assay: ELONA). Details: tags: His (histidine labelled, Ni-NTA captured).
Experimental: Selected ssDNA molecules from each individual clone were biotinylated using the B-T3 which is same sequence with 5′ primer (T3 primer), and Klenow fragment (2 unit/ml). To prepare single stranded biotin conjugated APT3Cooc10 aptamer for the reverse screening. T3 Primer was Biotin labelled. A 96-well flat bottom ELISA plate was prepared by coating each well with 100 μl of streptavidin (100 μg/ml) diluted in 0.1 M NaHCO₃ following by a 37° C. overnight incubation. Following several washings with PBS, wells were blocked with 200 μl of PBS containing 1% BSA for 2 hours at room temperature and subsequent washing three times with PBS-T (10 mM PBS containing 0.05% (v/v) Tween-20). Thereafter, 100 μl of 2.5 pmole/100 μl biotinylated-ssDNA were added to the wells and incubated at 37° C. for 2 hours followed by washing four times with PBS-T. T3 primer was used as negative control. Following washing, 100 μl of fluid containing 2 μg histidine labelled P97 peptidic complex were added to the indicated wells and incubated at 37° C. for 2 hours. The wells were then washed for 4 times with PBS-T. The reverse screening assay was completed using the DAKO Mycoplasma Hyopneumoniae ELISA tests (K004311-9 kit, Oxoid Ltd, UK).

Binding result, binds:
B1
B2
B3
